This note sets out measurements from patent publication US20220313831A1 (BAYLOR COLLEGE OF MEDICINE, published 2022).

This assay addresses T1, CD6 (basal, native) on non-transduced T cells (human, UniProt P30203 18-668).
T1 construct: whole, on cells; also called basal CD6 expression on normal T cells
T1 sequence (looked up): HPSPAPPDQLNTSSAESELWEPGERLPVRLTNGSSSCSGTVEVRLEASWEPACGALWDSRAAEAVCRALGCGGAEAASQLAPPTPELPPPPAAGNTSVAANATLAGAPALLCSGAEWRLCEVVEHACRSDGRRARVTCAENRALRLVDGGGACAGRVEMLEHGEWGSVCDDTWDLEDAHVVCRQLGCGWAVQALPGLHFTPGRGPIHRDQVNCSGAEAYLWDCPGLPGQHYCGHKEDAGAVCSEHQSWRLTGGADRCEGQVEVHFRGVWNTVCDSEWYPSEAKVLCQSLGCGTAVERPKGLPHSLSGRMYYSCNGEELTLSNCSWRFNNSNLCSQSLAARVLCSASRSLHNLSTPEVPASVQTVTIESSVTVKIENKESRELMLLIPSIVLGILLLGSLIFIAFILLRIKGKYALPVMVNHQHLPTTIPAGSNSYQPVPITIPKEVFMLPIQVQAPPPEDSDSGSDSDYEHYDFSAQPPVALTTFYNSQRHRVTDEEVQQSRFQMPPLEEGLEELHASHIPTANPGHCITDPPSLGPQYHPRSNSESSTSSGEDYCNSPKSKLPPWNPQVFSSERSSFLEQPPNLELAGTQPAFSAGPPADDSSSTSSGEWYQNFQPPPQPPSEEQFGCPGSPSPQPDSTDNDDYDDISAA
Briefly: flow cytometry; non-transduced T cells stained with ALCAM-Fc and anti-human IgG1 Fc FITC. The protocol:
A) FACS analysis was used to confirm ALCAM specific binding to MBE CD6 D3 constructs on the surface of primary T cells. Cells were incubated with IgG1 Fc linked recombinant human ALCAM followed by an anti-human IgG1 Fc FITC conjugated Ab (filled black histogram). Staining of cells with anti-human IgG1 Fc FITC alone (open grey histogram), staining of non-transduced T cells (NT) (dotted open histogram) served as control for basal CD6 expression on normal T cells which bind natively to ALCAM.Fc. and percentage transduction is determined after staining of monomer, monomer+signaling domain, trimer, trimer+signaling domain, pentamer and pentamer+signaling domain (grey-filled histogram) (FIG. 6).

B1: IgG1 Fc linked recombinant human ALCAM (Fc fusion, UniProt Q13740 28-527, looked up)
chain: WYTVNSAYGDTIIIPCRLDVPQNLMFGKWKYEKPDGSPVFIAFRSSTKKSVQYDDVPEYKDRLNLSENYTLSISNARISDEKRFVCMLVTEDNVFEAPTIVKVFKQPSKPEIVSKALFLETEQLKKLGDCISEDSYPDGNITWYRNGKVLHPLEGAVVIIFKKEMDPVTQLYTMTSTLEYKTTKADIQMPFTCSVTYYGPSGQKTIHSEQAVFDIYYPTEQVTIQVLPPKNAIKEGDNITLKCLGNGNPPPEEFLFYLPGQPEGIRSSNTYTLTDVRRNATGDYKCSLIDKKSMIASTAITVHYLDLSLNPSGEVTRQIGDALPVSCTISASRNATVVWMKDNIRLRSSPSFSSLHYQDAGNYVCETALQEVEGLKKRESLTLIVEGKPQIKMTKKTDPSGLSKTIICHVEGFPKPAIQWTITGSGSVINQTEESPYINGRYYSKIIISPEENVTLTCTAENQLERTVNSLNVSAISIPEHDEADEISDENREKVNDQAK
notes: also called ALCAM-fc; ALCAM-Fc; not shown: IgG1 Fc (detected with anti-human IgG1 Fc antibody)
For B1, the binding result was “binds”.
